This data set in a line: soluble on expression in E. coli; label from the status in PepcDB or PDB records.
Consider “MEAGSIVLGLVGKTNVGKSTFFAAATEVPVKIENRPFVTIEPNVGVGYARKRCAHVELGLPRCDPVNSLCIEGWRFIPVKLLDVAGLVPGAHRGRGLGNRFLDDVRKADALLLVVDASGSTDPEGVPVKPGSYDPVEEVGLMLGEIYEWMLQNLARDWERFARRVDTAGNVDLVTALSQRLSGFEIPRGVVAGVLEETGLGEKRLSSWSREDLRLFVKLVLERGKPAVILANKVDVPGAEENVERLGSSYPGIPVVPASALAELMLRRLAREGRVRYIPGDPDFTVKDPGGLGGKALKALELVRERVMKRWGGTGVVQAINTAVFDVLDMIAVYPVEDPNRYTDREGRILPDVILVKRGSTPRDLAYRIHTDLGKTFLYAVNAKTKQRVGEGYRLQDGDVVKIVAAAGKR”, for which the “soluble on expression in E. coli” value is on record as “soluble”.

As to “MAHHHHHHMTVVQEAIRVTSATPQPCGAADDVLAMKTLSPHDKVRRYMEEQECRHVPPTDATPEVASSEGGHDDALPGQHEDGDGEINHKIVPFTGEPGPDARERVPDRQKEKKKQKKQQAPRKRKHRSECAGREADDPLLLFRRSQKALRTEARHVNMKEVLSRSLSGVFDGLGEASNPFSPAAGSQSSSAWSPLVANSITSQFLSNVQQRKKQTFERLLQKEIANSQLSTSRLTPDDGEPDDRIPELVIGDETAVMEPPSMGHDALLMDAGTTSSQADTLLMGNTTSRGFVELDEEAEQAQSEALMRKHELWRLRQKHLRERLRAEESIPQLKRGDHQASLRGQPQTTVPMNFVTQSTSSLSTARGTTADVDGPTETLVLAHCSIIQQSQSLALGLSADHIEMIRRANNFDNTSSQRLVVFETKSRMKREGLAHLQQ”, the “soluble on expression in E. coli” value was “not soluble”.

Regarding “MTLDELNRLLDPQVLALIDAHASDDPATFAMQFHGRGDLPVRAIAEQIACRKKAAAKLPSLSRFPMLYTRL”, the “soluble on expression in E. coli” value was “not soluble”.

Regarding “NEHLGGIYDYLRTRRMQTLTELERTTTIETKTTREAIPETEAKADYRRQKEVAKQLRTLERTVATCEERIGKLESELQAIEMLLQDPKHATDANLFERYAGMKQELEKAMEDWEQASEALSEAQG”, the “soluble on expression in E. coli” value is reported as “not soluble”.

In the case of “MYNKDDVLKQADNIANKIKNLDTIKTYQQIEAQIHQNQTIKTKMDMLKKHQKQAVNFQNYGKQNALEQSEHTIQSIEAEINTLPIVEQFQTSQYEANQLLKMFVSTMETRLNDHNKAKHSDLEHHHHHH”, the “soluble on expression in E. coli” value is given as “not soluble”.

“MSLADVILHAFNWPYATVEARAKQIADAGYRKVLVAPAYRSEGSAWWARYQPQDIRLIDNPLGDTAAFKKMVQALASNGVETYADIVFNHMANEAATRSDLNYPGGAVLSQYAANPGRYDSLRLFGTLQSNFLSASDFGPAQCISNYNDAYQVRNYRICGGGSDPGLPDLLGNDWVVQQQRAYLQALKSMGVTGFRVDAAKHMTFDHLNRVFDAGIRSGVYVFGEVITGGGTGNGDYDQFLAPYLQSTPHAAYDFPLFNAVRNAFAIGASMQQLVDPAASGQALPGNRAVTFAVTHDIPNNAGFRYAILDPVDETLAYAYLIGRNGGMPMLYTDNNESGDNRWVNAYLRDDLRRMIGFHNGVQGTDMQVLSSSSCHILFRRGSLGIVGINKCGNPVTTTVGMNNSVLYWNADYVDALGSGNVVRISSSSYTFTLPARGARMWRREGHHHHHH”: the “soluble on expression in E. coli” value is listed as “not soluble”.

For “MKKWEKQTMKIAALGAMALTLAGCATAKSSSSQGNNPGKTIKIGVNMELSGSAAGYGEQQKQGIQLAVKKINKSGGIKVGGTKKKIQLVIRDNKTSNTTAASVAAQLVNNDKVVAVVGPATTSAGTAAIPNMTKAAVPSVSPSATDPDYTLQKSGKVQKYIFRACYQNNFQGATAATFVTKNLKAKRVAILTDNSSDYGTGLTKAFKKQYRGTVVSSQTFQEGDKDFNAILTALKHKKIDAIYAPGYYSEIGLIVKQARQAGIKAPIVGSDGMADAKLAQIAGKSNATNVYYTTPFSTKASATNKVASKFMSAYKAKYGSTAPTFSALAYDSVYMIKAAIEKEGSANSVKIADGLAKLKNFKGVTGTMTIDKQHNPEKTISIEQLTNGVVSKVYNVK”, the “soluble on expression in E. coli” value is recorded as “soluble”.

With “MNPFTYSKPTDITAAVNLSGPATRFIAGGTNLLDLMKENVATPEHLIDITGLPLREVSETASGGLMIGALVSNADLAYHPLIEARYPLLSKAVLAGASPQLRNMASTGGNLLQRTRCYYFYDTGVPCNKREPGSGCPAREGLNRIHAILGASDECVATHPSDMCVALAALEAVVHVEGRAGRRTIEFADFHRLPGDAPQRDNQLADDELIIAVELPAQGFASHNAYLKIRDRASYAFALISVAAAIDLDGDVVRDVRLALGGVAHKPWRDKAVEALLIGKPVTREHFAAAADAMLEDAKPLEHNGFKVRLARRAIIRALSDAATGGSAL”, the “soluble on expression in E. coli” value is reported as “not soluble”.

On to “MEILQFIGYGNMAQAILEGAHEILSKRFILEITGRNPEKIAPFLQEKNIQAQIVPYKDAIDIHQKFVFLLFKPYNLKDFNYQGQAKSVLSALAGVGFKALSDAIDSLHYLKCMPNIASKFALSSTAVCEKSPMPLISQKALSVIESFGNCVRVGHEELVDASVATNGSALAFLSLVANSLKDAGIREGLNARGSLELVKMSFKGFAKLLEKERPEMIIEQICTPKGATIEGLSVLEKKGVRGAFIEACHKSVKKMRLLEHHHHHH”, for which the “soluble on expression in E. coli” value is listed as “not soluble”.

On to “MGSDKIHHHHHHMSTTEIVKEAESRHDFALIANWIQPQSKVLDLGCGNGSLLSFLREKLGVKGYGVDKDDDNVLACIGHGVNVIQMDLEAGLAGFDSLSFDYVILSQTLQAMVNTEGVLREMLRVGKQGIITFPNFGYWRHRIQLMAGHMPVSDNIPHQWYNTPNLHLCTIDDFEALCDKMNIRITDRIVINEGNTVSFMPNLFGSLAIYRFEQAAWPVSY”, for which the “soluble on expression in E. coli” value is “not soluble”.

“MSLSHSIKPWHEACSKLARTSKPEAFNVDTLFAQLADDTNDTFYTVDPRWITQNAQQFSGCFPGTVLYAMKANPLVHVLEALSQGGINHFDVASLAEVQTVHNTLPNAVQYLMNPVKSRHCLHEAYYRHGVRSFVLDSEEELSKLRDVLPERDSTISMFVRYAPSESTAVYDLRGKFGASPALATQLVHQVAASTDWSLGLSFHVGSQAIEDGPWLAALDDADAIVRDTAQHVRHLDIGGGFPGNYLNSMGNTPDLVGRVCEHIQTSPTLKDLNLICEAGRGLVYGGMSLFARVLSRREHSVFCGAGIFGGLLSAQQWLQFPARVWRDAAPYAGSAEATFNIFGPTCDSMDRLAFPYSLASDIREGDWLEFQSTGAYSVSLRTPFNGFYADRIISLPSEGHHHHHH”: the “soluble on expression in E. coli” value was “soluble”.

Take “KGMTPPKTVNFKMKGVADAAFSHEFHLGMYKCNECHTKLFAYKAGAKRFTMADMDKGKSCGACHNGKDAFSSASDCGKCHPG”: the “soluble on expression in E. coli” value was “soluble”.

“MGSDKIHHHHHHMKKIYKSLTVSAIVATVSLSALPQSLAITHESQPTKQQRTVLFDRSHGQTAGAADWVSDGAFSDYADSIQKQGYDVKAIDGHSNITEASLKSSKIFVIPEANIPFKESEQAAIVNYVKQGGNVVFISDHYNADRNLNRIDSSEAMNGYRRGAYEDMSKGMNAEEKSSTAMQGVKSSDWLSTNFGVRFRYNALGDLNTSNIVSSKESFGITEGVKSVSMHAGSTLAITNPEKAKGIVYTPEQLPAKSKWSHAVDQGIYNGGGKAEGPYVAISKVGKGKAAFIGDSSLVEDSSPKYVREDNGEKKKTYDGFKEQDNGKLLNNITAWMSKDSDGKSLKASGLTLDTKTKLLDFERPERSTEPEKEPWSQPPSGYKWYDPTTFKAGSYGSEKGADPQPNTPDDHTPPNQNVKISFDIPQNVSVNEPFEVTIHLKGFEANQTLENLRVGIYKEGGRQIGQFSSKDNDYNPPGYSTLPTVKADENGNATIKINAKVLESMEGSKIRLKLGDKTLITTDFK”: the “soluble on expression in E. coli” value is on record as “not soluble”.

For “MGSDKIHHHHHHMDDIKSQIKELRLGAKIRKLRQDRRLTLQELSELSGLSKPLLSQIENDQVTPPIATLLKISKGLKVGIHYFFEEEEDQQKVVLTRAAQQQPTRRRSGNDAPHGYIYRSLAPGIRHKPMEPFLVEFELTDWSDSFFYRHDGFEFIYLLDGELEFHYGSDVMRLLPGDSIYYDSSEPHGYVSVGEERARAVAVLYTRD”, the “soluble on expression in E. coli” value is recorded as “not soluble”.

Turning to “MGSDKIHHHHHHMESIVSWPKPRGLARHSGRKAMSSLSSLARIALSLSLPSGLLDRGPSLRGTKFLAKAALKARFGGASQPFQMVNVGACDGALFDDVTPWLHRIAGARAMLVEPIPYNQKRLRANYPDKERFIIEPVAVTKTKGTITVHTFDAAALEAGTLPIEFIGCSSVTDTNLMSGKNAWGEADANFNKFAPHLRDIEVPSETLQTLLDRNGISHIDAFLVDCEGADWMVFEQLDLKRYRPGLIKVEVGALPATEIGQVVVKLKTAGYQVGFQAEDVWAFA”, the “soluble on expression in E. coli” value is given as “not soluble”.

Regarding “MSPQKRVKNVQAQNRTSQGSSSFQTTLSAWKVKQDPSNSKNISKHGQNNPVGDYEHADDQAEEDALQMAVGYFEKGPIKASQNKDKTLEKHLKTVENVAWKNGLASEEIDILLNIALSGKFGNAVNTRILKCMIPATVISEDSVVKAVSWLCVGKCSGSTKVLFYRWLVAMFDFIDRKEQINLLYGFFFASLQDDALCPYVCHLLYLLTKKENVKPFRVRKLLDLQAKMGMQPHLQALLSLYKFFAPALISVSLPVRKKIYLQNSENLWKTALLAVKQRNRGPSPEPLKLMLGPANVRPLKRKWNSLSVIPVLNSSSYTKECGKKEMSLSDCLNRSGSFPLEQLQSFPQLLQNIHCLELPSQMGSVLNNSLLLHYINCVRDEPVLLRFHYWLSQTLQEECIWYKVNNYEHGKEFTNFLDTIIRAECFLQEGYYSCEAFLYKSLPLWDGLSCRSQFLQLVSWIPFSSFSEVKPLLFDHLAQLFFTSTIYFKCSVLQSLKELLQNWLLWLSMDIHMKPVTNSPLETTLGGSMNCVSKLIHYVGWLSTTAMRLESNNTFLLHFILDFYEKVCDIYINYDLPLVVLFPPGIFYSALLSLDTSILNQLCFIMHRYRKNLTAAKKNELVQKTKSEFNFSSKTYQEFNYYLTSMVGCLWTSKPFAKGIYIDPEILEKTGVAEYKNSLNVVHHPSFLSYAVSFLLQESPEERTVNVSSIRGKKWSWYLDYLFSQGLQGLKLFIRSSVHHSSIPRAEGINCNNQY”, the “soluble on expression in E. coli” value is recorded as “soluble”.

In the case of “MATIHVDGKEYEVNGADNLLEACLSLGLDIPYFCWHPALGSVGACRQCAVKQYQNAEDTRGRLVMSCMTPASDGTFISIDDEEAKQFRESVVEWLMTNHPHDCPVCEEGGNCHLQDMTVMTGHSFRRYRFTKRTHRNQDLGPFISHEMNRCIACYRCVRYYKDYADGTDLGVYGAHDNVYFGRPEDGTLESEFSGNLVEICPTGVFTDKTHSERYNRKWDMQFAPSICQQCSIGCNISPGERYGELRRIENRYNGTVNHYFLCDRGRFGYGYVNLKDRPRQPVQRRGDDFITLNAEQAMQGAADILRQSKKVIGIGSPRASVESNFALRELVGEENFYTGIAHGEQERLQLALKVLREGGIYTPALREIESYDAVLVLGEDVTQTGARVALAVRQAVKGKAREMAAAQKVADWQIAAILNIGQRAKHPLFVTNVDDTRLDDIAAWTYRAPVEDQARLGFAIAHALDNSAPAVDGIEPELQNKIDVIVQALAGAKKPLIISGTNAGSIEVIQAAANVAKALKGRGADVGITMIARSVNSMGLGIMGGGSLEEALTELETGRADAVVVLENDLHRYASATRVNAALAKAPLVMVVDHQRTAIMENAHLVLSSASFAESDGTVINNEGRAQRFFQVYDPAYYDSKTVMLESWRWLHSLHSTLLSREVDWTQLDHVIDAVVAKIPELAGIKDAAPDATFRIRGQKLAREPHRYSGRTAMRANISVHEPRQPQDIDTMFTFSMEGNNQPTAHRSQVPFAWAPGWNSPQAWNKFQDEVGGKLRFGDPGVRLFETSENGLDYFTSVPARFQPQDGKWRIAPYYHLFGSDELSQRAPVFQSRMPQPYIKLNPADAAKLGVNAGTRVSFSYDGNTVTLPVEIAEGLTAGQVGLPMGMSGIAPVLAGAHLEDLKEAQQ”, the “soluble on expression in E. coli” value was “not soluble”.

Values taken from the DeepSol protein solubility set.
